Our source for the fold increase of binding activity against RGD4C 453 and fold higher affinity against the I-587-insertion mutant (AAV-amyloid-587) values is patent US20100203083A1.

Assay [1] addresses purified αVβ3 integrin (CHEMICON) (UniProt P06756).
Assay [2] deals with AAV-amyloid-453-587 (AAV-2; human) (UniProt P03135).

The substance “AAV2 RGD4C 453 A2 (from UniProt P03135 1-453; P03135 454-735) (other; other documents disagree on this pair)” gave a fold increase of binding activity against RGD4C 453 in assay [1] of 50 fold.

“anti-β-amyloid mAb 6E10 (CHEMICON) (antibody)”: the fold higher affinity against the I-587-insertion mutant (AAV-amyloid-587) in assay [2] is greater than 2 fold.
